The text below walks through data of publication PMC6939996 (Nature, 2019).

The chains are these.
T1: BBP/Mud2 dimer (S. cerevisiae, UniProt Q12186 1-476; P36084 1-527)
T1 sequence (looked up) 1: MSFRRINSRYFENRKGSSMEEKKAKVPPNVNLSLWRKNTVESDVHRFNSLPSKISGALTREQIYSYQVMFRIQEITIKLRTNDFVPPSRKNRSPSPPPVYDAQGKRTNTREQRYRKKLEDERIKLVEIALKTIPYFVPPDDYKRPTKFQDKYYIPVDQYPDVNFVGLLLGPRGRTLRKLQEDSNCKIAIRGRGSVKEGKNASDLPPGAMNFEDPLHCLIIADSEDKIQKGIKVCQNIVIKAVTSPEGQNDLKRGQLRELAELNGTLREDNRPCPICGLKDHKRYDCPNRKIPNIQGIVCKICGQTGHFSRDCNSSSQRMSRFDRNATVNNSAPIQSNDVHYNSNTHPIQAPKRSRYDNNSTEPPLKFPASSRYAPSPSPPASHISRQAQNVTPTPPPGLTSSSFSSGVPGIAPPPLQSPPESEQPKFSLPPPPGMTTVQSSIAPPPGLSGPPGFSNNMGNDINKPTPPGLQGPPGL
T1 sequence (looked up) 2: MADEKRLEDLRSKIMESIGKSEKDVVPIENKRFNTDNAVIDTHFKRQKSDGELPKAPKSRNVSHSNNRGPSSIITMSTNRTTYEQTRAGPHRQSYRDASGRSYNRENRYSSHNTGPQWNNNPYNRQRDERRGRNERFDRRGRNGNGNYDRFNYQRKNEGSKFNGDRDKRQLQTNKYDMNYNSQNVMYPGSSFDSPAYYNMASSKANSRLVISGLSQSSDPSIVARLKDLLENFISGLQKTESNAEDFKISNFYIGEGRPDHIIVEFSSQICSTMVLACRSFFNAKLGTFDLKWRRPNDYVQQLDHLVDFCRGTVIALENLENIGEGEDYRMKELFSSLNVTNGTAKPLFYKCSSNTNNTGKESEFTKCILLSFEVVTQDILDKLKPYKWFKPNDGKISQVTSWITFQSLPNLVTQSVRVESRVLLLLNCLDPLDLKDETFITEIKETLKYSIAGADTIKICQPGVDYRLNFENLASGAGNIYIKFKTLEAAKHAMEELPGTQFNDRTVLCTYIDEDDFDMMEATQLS

B1: U1-70K (in the purified U1 snRNP of the Ubc4 E complex) (natural protein, S. cerevisiae)
chain: MNYNLSKYPDDVSRLFKPRPPLSYKRPTDYPYAKRQTNPNITGVANLLSTSLKHYMEEFPEGSPNNHLQRYEDIKLSKIKNAQLLDRRLQNWNPNVDPHIKDTDPYRTIFIGRLPYDLDEIELQKYFVKFGEIEKIRIVKDKITQKSKGYAFIVFKDPISSKMAFKEIGVHRGIQIKDRICIVDIERGRTVKYFKPRRLGGGLGGRGYSNRDSRLPGRFASASTSNPAERNYAPRLPRRETSSSAYSADRYGSSTLDARYRGNRPLLSAATPTAAVTSVYKSRNSRTRESQPAPKEAPDY
B2: Snu71 (in the purified U1 snRNP of the Ubc4 E complex) (natural protein, S. cerevisiae, UniProt P53207 1-620, looked up)
chain: MRDIVFVSPQLYLSSQEGWKSDSAKSGFIPILKNDLQRFQDSLKHIVDARNSLSETLLNSNDDGSIHNSDQNTGLNKDKEASIADNNSANKCATSSSRYQELKQFLPISLDQQIHTVSLQGVSSSFSRGQIESLLDHCLNLALTETQSNSALKVEAWSSFSSFLDTQDIFIRFSKVDEDEAFVNTLNYCKALFAFIRKLHEDFKIELHLDLNTKEYVEDRTGTIPSVKPEKASEFYSVFKNIEDQTDERNSKKEQLDDSSTQYKVDTNTLSDLPSDALDQLCKDIIEFRTKVVSIEKEKKMKSTYEESRRQRHQMQKVFDQIRKNHSGAKGSANTEEEDTNMEDEDEEDDTEDDLALEKRKEERDLEESNRRYEDMLHQLHSNTEPKIKSIRADIMSAENYEEHLEKNRSLYLKELLHLANDVHYDHHRSFKEQEERRDEEDRAKNGNAKELAPIQLSDGKAISAGKAAAITLPEGTVKSENYNADKNVSESSEHVKIKFDFKKAIDHSVESSSEDEGYRESELPPTKPSERSAAEDRLPFTADELNIRLTNLKESRYVDELVREFLGVYEDELVEYILENIRVNQSKQALLNELRETFDEDGETIADRLWSRKEFRLGT
B3: Luc7 (in the purified U1 snRNP of the Ubc4 E complex) (natural protein, S. cerevisiae)
chain: MSTMSTPAAEQRKLVEQLMGRDFSFRHNRYSHQKRDLGLHDPKICKSYLVGECPYDLFQGTKQSLGKCPQMHLTKHKIQYEREVKQGKTFPEFEREYLAILSRFVNECNGQISVALQNLKHTAEERMKIQQVTEELDVLDVRIGLMGQEIDSLIRADEVSMGMLQSVKLQELISKRKEVAKRVRNITENVGQSAQQKLQVCEVCGAYLSRLDTDRRLADHFLGKIHLGYVKMREDYDRLMKNNRTTNASKTATTLPGRRFV
B4: Prp40 (in the purified U1 snRNP of the Ubc4 E complex) (natural protein)
chain: MSIWKEAKDASGRIYYYNTLTKKSTWEKPKELISQEELLLRENGWKAAKTADGKVYYYNPTTRETSWTIPAFEKKVEPIAEQKHDTVSHAQVNGNRIALTAGEKQEPGRTINEEESQYANNSKLLNVRRRTKEEAEKEFITMLKENQVDSTWSFSRIISELGTRDPRYWMVDDDPLWKKEMFEKYLSNRSADQLLKEHNETSKFKEAFQKMLQNNSHIKYYTRWPTAKRLIADEPIYKHSVVNEKTKRQTFQDYIDTLIDTQKESKKKLKTQALKELREYLNGIITTSSSETFITWQQLLNHYVFDKSKRYMANRHFKVLTHEDVLNEYLKIVNTIENDLQNKLNELRLRNYTRDRIARDNFKSLLREVPIKIKANTRWSDIYPHIKSDPRFLHMLGRNGSSCLDLFLDFVDEQRMYIFAQRSIAQQTLIDQNFEWNDADSDEITKQNIEKVLENDRKFDKVDKEDISLIVDGLIKQRNEKIQQKLQNERRILEQKKHYFWLLLQRTYTKTGKPKPSTWDLASKELGESLEYKALGDEDNIRRQIFEDFKPESSAPTAESATANLTLTASKKRHLTPAVELDY
B5: Snu56 (in the purified U1 snRNP of the Ubc4 E complex) (natural protein, S. cerevisiae)
chain: MRPRRRGLAYHHTKPKGQLSQGHYPTTSNDGQRRKVGNSEAFQSFDIWKNLDRIRSTKKNAGQFIKGSLLILPMRTEDKQQFDECMDELHKYISKDILRCYPQKEQKDEGMLFYIVLKDFNILDSCFVLSVLLAFQKRLWMAPSEKSYFRVPKNINLTGSFYLPKNIETGRGHIITSYRREQPSSSIVEVGFNVVPDFQQFQVKACHVSKFMNELSNFFSQVEFGKCEANVINYFKREYNRTYSQISLALYELPLIGDGLFDIKSYISKTRPIIETSKAQMIKHISEMKAYNEISGLQGDQFPRQQRPLSNSPSSNSISSSQTIEAGATSYQTQPQRHAVNKPSNVLNSSNRHSGPKTFEDGRYSEGNKPGFMTQDEIKQHCIGTIKASMDAVKKKSSYQILKTYVRCPRQNYIDIVYQNLNDLRSKTNCNIVVLNLNNLHESQMWLESLNTTNYTIFAQAPHPSTIRVISIGGVGEYIVKALELILNILEH

Assay in all cases: cross-linking
The target in assay [1] is B4.
The target of another assay is T1, BBP/Mud2 dimer.
Assay [2] deals with B2.

On to B1, for which the binding result in assay [1] is listed as “binds”.
As to B2, the binding result with BBP/Mud2 dimer is “binds”.
On to B3, for which the binding result (with BBP/Mud2 dimer; in assay [1]) was “binds” throughout.
For the molecule B4, the binding result (in assay [2]; with BBP/Mud2 dimer) was “binds” each time.
For the molecule B5, in the assay with BBP/Mud2 dimer, the binding result was “binds”.
